Results as given in PMC7077846 (PLoS Biology, 2020).

Biological target: T1, human proteasome activator 200 (PA200) (human, UniProt Q14997 1-1843)
T1 construct: Carries the cofactors 5,6[PP]2-InsP4 and InsP6 in its two openings; The results say 1,844 residues, the methods 1-1,843; source: Trichoplusia ni (Hi5) insect cells, baculovirus (Bac-to-Bac), purified (Ni-NTA, gel filtration on Superose 6)
Experiment: cryo-EM structure; 3 μl 20S-CP (approximately 1.4 mg/ml) incubated with 6 μl PA200 (approximately 0.44 mg/ml) in ice for 1 h; single-capped PA200-20S particles selected; 2.72 Å
Settings: both partners purified

T1 sequence (Q14997 whole entry): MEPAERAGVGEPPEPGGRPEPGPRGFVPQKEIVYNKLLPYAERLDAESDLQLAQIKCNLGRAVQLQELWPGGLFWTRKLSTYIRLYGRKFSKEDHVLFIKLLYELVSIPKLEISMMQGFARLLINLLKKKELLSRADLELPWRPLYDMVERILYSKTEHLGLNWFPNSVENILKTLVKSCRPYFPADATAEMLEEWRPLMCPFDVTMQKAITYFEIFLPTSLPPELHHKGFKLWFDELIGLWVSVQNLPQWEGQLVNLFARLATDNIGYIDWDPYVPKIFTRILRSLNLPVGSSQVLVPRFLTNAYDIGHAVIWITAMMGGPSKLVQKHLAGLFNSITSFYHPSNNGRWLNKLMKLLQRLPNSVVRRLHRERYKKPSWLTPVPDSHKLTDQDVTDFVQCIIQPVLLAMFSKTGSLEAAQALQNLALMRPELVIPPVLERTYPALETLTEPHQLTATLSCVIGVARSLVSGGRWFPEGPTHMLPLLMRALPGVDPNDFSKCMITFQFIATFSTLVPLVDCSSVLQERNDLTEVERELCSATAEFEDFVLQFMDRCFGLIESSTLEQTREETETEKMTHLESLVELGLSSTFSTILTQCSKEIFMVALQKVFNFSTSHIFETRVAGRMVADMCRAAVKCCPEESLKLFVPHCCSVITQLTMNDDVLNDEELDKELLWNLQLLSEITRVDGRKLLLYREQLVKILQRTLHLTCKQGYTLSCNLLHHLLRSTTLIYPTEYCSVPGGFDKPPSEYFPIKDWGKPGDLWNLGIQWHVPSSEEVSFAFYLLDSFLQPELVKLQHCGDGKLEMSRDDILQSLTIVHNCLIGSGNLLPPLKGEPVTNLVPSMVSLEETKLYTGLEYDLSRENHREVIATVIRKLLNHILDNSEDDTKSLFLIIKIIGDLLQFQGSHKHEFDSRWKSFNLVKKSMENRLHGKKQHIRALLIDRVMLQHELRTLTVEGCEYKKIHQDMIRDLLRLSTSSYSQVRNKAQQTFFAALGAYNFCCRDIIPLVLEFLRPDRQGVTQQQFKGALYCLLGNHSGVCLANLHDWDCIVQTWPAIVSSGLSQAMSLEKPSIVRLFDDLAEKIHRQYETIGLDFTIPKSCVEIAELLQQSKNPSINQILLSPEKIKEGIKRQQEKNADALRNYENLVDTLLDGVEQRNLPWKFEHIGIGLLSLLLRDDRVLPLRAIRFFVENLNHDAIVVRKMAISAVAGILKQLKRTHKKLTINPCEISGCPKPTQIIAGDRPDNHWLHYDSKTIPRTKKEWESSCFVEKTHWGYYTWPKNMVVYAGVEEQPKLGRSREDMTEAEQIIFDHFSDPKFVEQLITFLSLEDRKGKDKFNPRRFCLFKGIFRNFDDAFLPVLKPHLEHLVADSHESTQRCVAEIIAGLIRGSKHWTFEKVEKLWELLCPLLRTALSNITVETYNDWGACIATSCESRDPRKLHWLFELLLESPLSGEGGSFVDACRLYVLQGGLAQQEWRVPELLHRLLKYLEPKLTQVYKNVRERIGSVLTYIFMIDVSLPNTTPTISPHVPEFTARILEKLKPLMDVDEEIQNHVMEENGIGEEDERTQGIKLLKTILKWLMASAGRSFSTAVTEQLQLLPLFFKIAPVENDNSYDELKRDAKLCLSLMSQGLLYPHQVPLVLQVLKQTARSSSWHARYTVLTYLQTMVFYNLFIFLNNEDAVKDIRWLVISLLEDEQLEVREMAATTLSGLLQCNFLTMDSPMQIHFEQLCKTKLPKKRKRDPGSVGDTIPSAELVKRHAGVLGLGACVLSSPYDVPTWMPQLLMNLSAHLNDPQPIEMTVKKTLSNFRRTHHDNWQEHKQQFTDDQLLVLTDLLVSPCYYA
Chain of human proteasome activator 200 (PA200) (from UniProt Q14997 1-1843) (natural protein) (Q14997 whole entry): as above

Molecule	binding result
human 20S proteasome subunit α7 (natural protein, 20S proteasome subunit α7, human; named only as α7; Stood in the experiment as a subunit of the whole 20S core particle; source: bought: Boston Biochem, as part of the human 20S proteasome) MSSIGTGYDLSASTFSPDGRVFQVEYAMKAVENSSTAIGIRCKDGVVFGVEKLVLSKLYEEGSNKRLFNVDRHVGMAVAGLLADARSLADIAREEASNFRSNFGYNIPLKHLADRVAMYVHAYTLYSAVRPFGCSFMLGSYSVNDGAQLYMIDPSGVSYGYWGCAIGKARQAAKTEIEKLQMKEMTCRDIVKEVAKIIYIVHDEVKDKAFELELSWVGELTNGRHEIVPKDIREEAEKYAKESLKEEDESDDDNM	binds
human 20S proteasome subunit α2 (natural protein, 20S proteasome subunit α2, human; named only as α2; Stood in the experiment as a subunit of the whole 20S core particle; source: bought: Boston Biochem, as part of the human 20S proteasome) MAERGYSFSLTTFSPSGKLVQIEYALAAVAGGAPSVGIKAANGVVLATEKKQKSILYDERSVHKVEPITKHIGLVYSGMGPDYRVLVHRARKLAQQYYLVYQEPIPTAQLVQRVASVMQEYTQSGGVRPFGVSLLICGWNEGRPYLFQSDPSGAYFAWKATAMGKNYVNGKTFLEKRYNEDLELEDAIHTAILTLKESFEGQMTEDNIEVGICNEAGFRRLTPTEVKDYLAAIA	binds
human 20S proteasome subunit α5 (natural protein, 20S proteasome subunit α5, human; named only as α5; Stood in the experiment as a subunit of the whole 20S core particle; source: bought: Boston Biochem, as part of the human 20S proteasome) MFLTRSEYDRGVNTFSPEGRLFQVEYAIEAIKLGSTAIGIQTSEGVCLAVEKRITSPLMEPSSIEKIVEIDAHIGCAMSGLIADAKTLIDKARVETQNHWFTYNETMTVESVTQAVSNLALQFGEEDADPGAMSRPFGVALLFGGVDEKGPQLFHMDPSGTFVQCDARAIGSASEGAQSSLQEVYHKSMTLKEAIKSSLIILKQVMEEKLNATNIELATVQPGQNFHMFTKEELEEVIKDI	binds
human 20S proteasome subunit α4 (natural protein, 20S proteasome subunit α4, human; named only as α4; Stood in the experiment as a subunit of the whole 20S core particle; source: bought: Boston Biochem, as part of the human 20S proteasome) MSYDRAITVFSPDGHLFQVEYAQEAVKKGSTAVGVRGRDIVVLGVEKKSVAKLQDERTVRKICALDDNVCMAFAGLTADARIVINRARVECQSHRLTVEDPVTVEYITRYIASLKQRYTQSNGRRPFGISALIVGFDFDGTPRLYQTDPSGTYHAWKANAIGRGAKSVREFLEKNYTDEAIETDDLTIKLVIKALLEVVQSGGKNIELAVMRRDQSLKILNPEEIEKYVAEIEKEKEENEKKKQKKAS	binds
human 20S proteasome subunit α3 (natural protein, 20S proteasome subunit α3, human; named only as α3; Stood in the experiment as a subunit of the whole 20S core particle; source: bought: Boston Biochem, as part of the human 20S proteasome) MSRRYDSRTTIFSPEGRLYQVEYAMEAIGHAGTCLGILANDGVLLAAERRNIHKLLDEVFFSEKIYKLNEDMACSVAGITSDANVLTNELRLIAQRYLLQYQEPIPCEQLVTALCDIKQAYTQFGGKRPFGVSLLYIGWDKHYGFQLYQSDPSGNYGGWKATCIGNNSAAAVSMLKQDYKEGEMTLKSALALAIKVLNKTMDVSKLSAEKVEIATLTRENGKTVIRVLKQKEVEQLIKKHEEEEAKAEREKKEKEQKEKDK	binds

Biological target: human 20S proteasome core particle (human) (UniProt P60900)
Sequence (P60900 whole entry, looked up): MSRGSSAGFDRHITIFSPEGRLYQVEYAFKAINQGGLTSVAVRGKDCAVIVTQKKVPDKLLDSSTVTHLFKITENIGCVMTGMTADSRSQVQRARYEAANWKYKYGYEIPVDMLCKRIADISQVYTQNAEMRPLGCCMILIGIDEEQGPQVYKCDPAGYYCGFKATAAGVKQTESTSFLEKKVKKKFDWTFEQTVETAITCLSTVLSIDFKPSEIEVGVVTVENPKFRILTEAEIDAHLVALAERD
Experiment: not given
Settings: not given

Molecule	Vmax of cleavage of Suc-LLVY-AMC (chymotryptic-like activity) by PA200-20S, 2.5 nM; 20S alone 3.14 μM/min
human proteasome activator 200 (PA200) (from UniProt Q14997 1-1843) (natural protein)	11.4 µM/min
